These results are taken from article PMC8809517, “Cofactor-independent RNA editing by a synthetic S-type PPR protein”.

Substitutions are numbered along the chain they refer to.

Common to all, as to experiment: high-throughput RNA pulldown from lysate on Ni-NTA beads; HRP: 50 mM Tris pH 8, 150 mM NaCl, 1 mM beta-mercaptoethanol, 50 ug/ml BSA, 3 ug/ml yeast RNA, 0.5% heparin; ITC and FP: Tris pH 8, 200 mM KCl, 5% glycerol; MST: 50 mM Tris pH 8, 200 mM NaCl, 1 mM DTT, BSA, heparin, 0.05% Tween 20
Settings in all cases: tags: N-terminal His-eGFP

Data set [1] has as its target T1, GFP-9S library array, motif 4 ND N98M;D124Y (synthetic construct, N98M;D124Y).
T1 chain: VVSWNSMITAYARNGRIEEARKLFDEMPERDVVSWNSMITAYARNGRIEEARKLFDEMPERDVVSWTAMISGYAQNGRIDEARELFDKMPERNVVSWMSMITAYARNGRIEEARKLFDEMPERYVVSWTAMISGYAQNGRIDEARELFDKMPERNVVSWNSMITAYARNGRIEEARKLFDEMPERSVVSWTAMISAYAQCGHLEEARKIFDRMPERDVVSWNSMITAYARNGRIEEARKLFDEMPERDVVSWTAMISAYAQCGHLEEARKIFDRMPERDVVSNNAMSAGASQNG

In data set [2] the target is T2, GFP-9S library array, motif 4 ND N98W;D124T (synthetic construct, N98W;D124T).
T2 chain: T1 chain with M98W, Y124T

The target of data set [3] is T3, GFP-9S library array, motif 4 ND N98M;D124E (synthetic construct, N98M;D124E).
T3 chain: T1 chain with Y124E

The target in data set [4] is T4, GFP-9S library array, motif 4 ND N98G;D124Y (synthetic construct, N98G;D124Y).
T4 chain: T1 chain with M98G

Data set [5] concerns the target T5, GFP-9S library array, motif 4 ND N98L;D124Q (synthetic construct, N98L;D124Q).
T5 chain: T1 chain with M98L, Y124Q

Consider AUUAUACGUGA (ssRNA) [IR-rpoA-U], for which the dissociation constant (Kd) (as a rule, the equilibrium constant for the complex coming apart) in data set [1] (label: 5' IRDye 800CW) amounted to 682 nM; in data set [2] (label: 5' IRDye 800CW) it was 59.1 nM; in data set [3] (label: 5' IRDye 800CW), 158 nM; in data set [4] (label: 5' IRDye 800CW), 574 nM; in data set [5] (label: 5' IRDye 800CW), 58.9 nM.

In the case of AUUAAACGUGA (ssRNA) [IR-rpoA-A], the dissociation constant (Kd) is 488 nM in data set [1] (label: 5' IRDye 800CW); 76.1 nM in data set [2] (label: 5' IRDye 800CW); 264 nM in data set [3] (label: 5' IRDye 800CW); 548 nM in data set [4] (label: 5' IRDye 800CW); 80 nM in data set [5] (label: 5' IRDye 800CW).

For the molecule AUUAGACGUGA (ssRNA) [Cy5-rpoA-G], the Kd was 167 nM in data set [1] (label: 5' Cy5); 50.4 nM in data set [2] (label: 5' Cy5); 89 nM in data set [3] (label: 5' Cy5); 280 nM in data set [4] (label: 5' Cy5); 68.5 nM in data set [5] (label: 5' Cy5).

Regarding AUUACACGUGA (ssRNA) [Cy5-rpoA], the Kd in data set [1] (label: 5' Cy5) was 216 nM; in data set [2] (label: 5' Cy5) it was 38.5 nM; in data set [3] (label: 5' Cy5), 117 nM; in data set [4] (label: 5' Cy5) it was 272 nM; in data set [5] (label: 5' Cy5), 60 nM.
